Source: patent US20220125962A1

B1: ^225/7Ac-HuM195 (HuM195-DOTA conjugate labeled with linac/accelerator-generated ^225Ac containing a molar excess of ^227Ac) (antibody, INN chains, looked up, V domains shown)
VH: QVQLVQSGAEVKKPGSSVKVSCKASGYTFTDYNMHWVRQAPGQGLEWIGYIYPYNGGTGYNQKFKSKATITADESTNTAYMELSSLRSEDTAVYYCARGRPAMDYWGQGTLVTVSS
VL: DIQMTQSPSSLSASVGDRVTITCRASESVDNYGISFMNWFQQKPGKAPKLLIYAASNQGSGVPSRFSGSGSGTDFTLTISSLQPDDFATYYCQQSKEVPWTFGQGTKVEIK
modifications: DOTA conjugate labelled with 225Ac/227Ac

Key:
[1] = biological target: human CD33 antigen (human) (UniProt P20138); assay: immunoreactivity of the radiolabeled HuM195-DOTA conjugate, Preparation 2; format not described
[2] = biological target: human CD33 antigen (human) (UniProt P20138); assay: immunoreactivity of the radiolabeled HuM195-DOTA conjugate, Preparation 1; format not described

| Molecule | Immunoreactivity (%) [1] | Immunoreactivity (%) [2] |
| --- | --- | --- |
| ^225Ac-HuM195 (HuM195-DOTA conjugate labeled with thorium cow-generated ^225Ac) (antibody) | 82% | 72.2% |
| B1 | 83% | 65.4% |
